Measurements reported in patent US20090239794A1, “HCV F PROTEIN AND USES THEREOF” (priority 2004, published 2009).

Target: HLA-A*0201 on the surface of T2 cells (human)
Assay: T2 peptide binding assay, W6/32-FITC flow cytometry

Binder	peak fluorescence, % of the level obtained with NS3 1406-1415
CCRAGALDWVCARRE (modifications not checked) [F protein peptide F37-51]	79.2%
VRSLVEFTCCRAGAL (modifications not checked) [F protein peptide F29-43]	87.6%
PVALGLAGAPQTPGV (modifications not checked) [F protein peptide F101-115]	83.2%
